The text below walks through data of US20220242973A1 (Molecular Partners, published 2022).

Test [1] has as its target T1, Recombinant human FAP (fibroblast activation protein) (human, UniProt Q12884 26-760).
T1 sequence (looked up): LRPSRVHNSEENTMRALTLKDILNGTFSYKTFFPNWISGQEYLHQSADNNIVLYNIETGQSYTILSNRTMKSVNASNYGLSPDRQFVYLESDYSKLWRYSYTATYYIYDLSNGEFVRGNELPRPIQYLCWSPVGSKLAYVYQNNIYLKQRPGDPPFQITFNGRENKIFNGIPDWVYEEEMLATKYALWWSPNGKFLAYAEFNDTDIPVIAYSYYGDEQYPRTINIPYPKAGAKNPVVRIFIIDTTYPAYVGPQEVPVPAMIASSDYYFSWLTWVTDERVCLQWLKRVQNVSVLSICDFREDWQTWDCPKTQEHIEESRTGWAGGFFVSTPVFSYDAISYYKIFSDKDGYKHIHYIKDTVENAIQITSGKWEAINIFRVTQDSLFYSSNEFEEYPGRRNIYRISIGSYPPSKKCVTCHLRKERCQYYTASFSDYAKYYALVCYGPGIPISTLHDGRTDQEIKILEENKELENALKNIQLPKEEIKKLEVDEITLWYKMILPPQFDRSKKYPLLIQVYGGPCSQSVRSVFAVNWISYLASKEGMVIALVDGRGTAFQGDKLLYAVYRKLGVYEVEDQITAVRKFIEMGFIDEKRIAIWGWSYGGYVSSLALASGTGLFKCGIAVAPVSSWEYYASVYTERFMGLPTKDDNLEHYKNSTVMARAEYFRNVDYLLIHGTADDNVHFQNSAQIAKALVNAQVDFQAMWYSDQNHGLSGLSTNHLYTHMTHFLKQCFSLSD
In words: cell-based or functional assay.

Test [2] addresses T1, Recombinant human FAP (fibroblast …). Briefly: SPR (ProteOn), human FAP immobilized on GLC chip. The method, then:
Briefly, human FAP was diluted in 10 mM Na-acetate pH 5.3 buffer and covalently immobilized on a GLC chip (BioRad) to a level of around 2000 resonance units (RU). The interaction of ankyrin repeat protein and hFAP was then measured by injecting 200 μl running buffer (PBS, pH 7.4 containing 0.005% Tween 20®) containing serial dilutions of ankyrin repeat proteins covering a concentration range between 30 nM and 0.5 nM (on-rate measurement), followed by a running buffer flow for at least 25 minutes at a constant flow rate of 100 μl/min (off-rate measurement). The regeneration was performed using 15 μl of 10 mM Glycine pH 2 followed by 15 μl of 124 mM H₃PO₄. The signals (i.e. resonance unit (RU) values) of the interspots and a reference injection (i.e. injection of running buffer only) were subtracted from the RU traces obtained after injection of ankyrin repeat protein (double-referencing). Based on the SPR traces obtained from the on-rate and off-rate measurements, the on- and off-rate of the corresponding ankyrin repeat protein—FAP interaction was determined.
Dissociation constants (KD) were calculated from the estimated on- and off-rates using standard procedures known to the person skilled in the art. […] Table 1 provides the KD values of some selected ankyrin repeat proteins as examples.

Test [3] concerns the target T2, Human FAP expressed on the cell surface (WI38, CHO-FAP1.9, U87MG cells) (human, UniProt Q12884 1-760).
T2 construct: whole, on cells; Endogenous on WI38 and U87MG cells; from a human FAP cDNA (OriGene) in CHO-FAP1.9 cells; also called hFAP; FAP+ cells
T2 sequence (looked up): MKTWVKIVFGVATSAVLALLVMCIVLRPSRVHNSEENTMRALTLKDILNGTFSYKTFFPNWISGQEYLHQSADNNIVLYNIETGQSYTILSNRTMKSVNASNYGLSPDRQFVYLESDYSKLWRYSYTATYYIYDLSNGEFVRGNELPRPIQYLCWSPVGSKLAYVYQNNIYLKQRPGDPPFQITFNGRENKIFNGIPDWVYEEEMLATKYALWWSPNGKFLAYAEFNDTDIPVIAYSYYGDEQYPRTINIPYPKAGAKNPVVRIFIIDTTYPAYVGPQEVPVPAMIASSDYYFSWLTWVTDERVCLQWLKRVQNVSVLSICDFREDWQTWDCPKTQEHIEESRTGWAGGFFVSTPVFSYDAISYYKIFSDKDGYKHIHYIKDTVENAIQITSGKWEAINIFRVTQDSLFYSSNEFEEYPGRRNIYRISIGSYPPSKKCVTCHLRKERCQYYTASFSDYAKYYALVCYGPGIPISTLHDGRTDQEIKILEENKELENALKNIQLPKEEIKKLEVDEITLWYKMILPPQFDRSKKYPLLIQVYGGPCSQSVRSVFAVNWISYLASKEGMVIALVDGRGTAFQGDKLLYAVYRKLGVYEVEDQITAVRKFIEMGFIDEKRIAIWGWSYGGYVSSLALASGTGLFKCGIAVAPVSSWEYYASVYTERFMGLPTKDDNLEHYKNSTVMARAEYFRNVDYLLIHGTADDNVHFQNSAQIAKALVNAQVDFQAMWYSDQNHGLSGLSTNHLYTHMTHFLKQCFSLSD
Briefly: FACS on FAP-expressing WI38 cells, Penta-His AF647 detection. The method, then:
(§1) Using multi-well plates, 20,000 WI38 cells were added per well in 50 μl of PBS. 50 μl of appropriate dilutions (2× dilution steps) of ankyrin repeat protein was then added to the cells and incubated for 30 minutes on ice. After the ankyrin repeat protein-binding reaction, cells were washed twice with PBS. Direct immunofluorescent detection of the His-tagged ankyrin repeat proteins using Penta-His AF647 conjugate (QIAgen) and determination of live cells using LIVE/DEAD™ Fixable Green Dead Cell Stain Kit (ThermoFisher) were then performed together in one step. The Penta-His AF647 conjugate and the LIVE/DEAD™ Fixable Green dye were applied to the cells together in 1/200 (Penta-His) and 1/1000 (LID Fixable) final dilutions and incubated for 20-30 minutes on ice. After washing the cells with PBS, cells were re-suspended in 1× CellFix™ buffer (BD Biosciences) (10× stock was diluted 1/10 in water). The samples were incubated in CellFix™ buffer for 15-20 minutes at RT, then spun down at 400 g for 5 min. Supernatant was discarded and cells were re-suspended in 200 μl PBS and stored at 4° C. until acquisition and FACS analysis. Acquisition and FACS analysis, including the determination of median fluorescence intensity (MFI), were done within 5 days after staining using an AttuneNxT instrument. Binding curves were fitted by non-linear regression curve fitting using GraphPad Prism software (v 7.0.4).
EC₅₀ values were determined using standard procedures known to the person skilled in the art. […] Table 2 provides the EC₅₀ values of selected ankyrin repeat proteins as examples.

Test [4] concerns the target T3, Cynomolgus FAP expressed on CHO cells (cynomolgus monkey (Macaca fascicularis)).
T3 construct: whole, on cells; also called cFAP-expressing CHO cells; cynomolgus FAP+ CHO cells
In words: FACS on cFAP-expressing CHO cells. The method, then: as §1
A series of dilutions of ankyrin repeat proteins were added to cFAP expressing CHO cells. The binding reaction and subsequent analysis and MFI measurements were performed essentially as described in Example 3 for the WI38 cells.

B1: DARPin® protein #9 (designed binder)
chain: MRGSHHHHHHGSYPYDVPDYAGSDLGKKLLEAARAGQDDEVRILMANGADVNAFDTTGRTPLHLAALWGHLEIVEVLLKHGADVNASDWFSITPLHLAAFMGHLEIVEVLLNHGADVNAQDKFGKTAFDISIDHGNEDLAEILQKLN
Take B1: the “FAP activity (%)” value in test [1] was found to be 115%. Further, the equilibrium dissociation constant (Kd) (usually the free concentration of one partner at which half of the binding sites on the other are occupied at equilibrium, for simple one-to-one binding) in test [2] amounted to 0.186 nM. For the same molecule, a half-maximal effect in test [3] (EC50) was put at 0.276 nM.

B2: DARPin® protein #30 (designed binder)
chain: MRGSHHHHHHGSYPYDVPDYAGSDMGKKLLEAARAGQDDEVRELLKAGADVNAKDEWGWTPLHVAAERGHLEIVEVLLKAGADVNAKDKHGVTPLHLAAWRGHLEIVEVLLKAGADVNAKDIQGLTPLHIAAHQGHLEIVEVLLKAGADVNAQDKSGKTPADLAADAGHEDIAEVLQKLN
For B2, the “FAP activity (%)” value in test [1] was 101%. Also, the Kd in test [2] came out at 7.02 nM. The 50% effective concentration (EC50) (as a rule, the concentration at which the effect is half-maximal) in test [3] came out at 0.65 nM.

B3: DARPin® protein #4 (designed binder)
chain: MRGSHHHHHHGSYPYDVPDYAGSDLGHKLLEAATQGQDDEVRILLAAGADVNAKDEHGKTPLHLAAKKGHLEIVEVLLKAGADVNAKDDWGVTPLHLAAYWGHLEIVEVLLKAGADVNAQDNDGYTPADLAATFGHEDIAEVLQKLN
Regarding B3, the “FAP activity (%)” value in test [1] was determined as 111%. For the same molecule, the Kd in test [2] worked out at 1.35 nM. In test [3], this molecule had an EC50 of 1.09 nM.

B4: DARPin® protein #26 (designed binder)
chain: MRGSHHHHHHGSYPYDVPDYAGSDLGKKLLEAARAGQDDEVRELLKAGADVNAKDEVGRTPLHLAAQIGHLEIVEVLLKAGADVNAKNRWGVTPLHVAAWVGHLEIVEVLLKAGADVNAKDQQGATPLHLAAIRGHLEIVEVLLKAGADVNAQDKSGKTPADLAADAGHEDIAEVLQKLN
On to B4, for which, in test [1], the “FAP activity (%)” value stood at 106%. The figures for the 50% effective concentration (EC50) in test [4] and in test [3] were 6.1 nM and 0.15 nM, respectively. For the same molecule, the dissociation constant Kd in test [2] worked out at 0.053 nM.

B5: DARPin® protein #3 (designed binder)
chain: MRGSHHHHHHGSYPYDVPDYAGSDMGKKLLEAARAGQDDEVRILMANGADVNAFDQVGRTPLHLDALAGHLEIVEVLLKHGADVNAADMFGITPLHLAAFIGHLEIVEVLLKHGADVNAYDLDGRTPLHPAAYHGHLEIVEVLLKNGADVNAQDKFGKTAFDISIDNGNEDLAEILQKLN
Take B5: the “FAP activity (%)” value in test [1] is 116%. Also, the Kd in test [2] came to 5.43 nM. In test [3], this molecule yielded an EC50 of 5.72 nM.

B6: DARPin® protein #18 (designed binder)
chain: MRGSHHHHHHGSYPYDVPDYAGSDLGKKLLEAARAGQDDEVRILLAAGADVNAKDVLGWTPLHLAAFEGHLEIVEVLLKAGADVNAKDKKGWTPLQLAARTGHLEIVEVLLKAGADVNAKDHIGATPLHLAAWQGHPEIVEVLLKAGADVNAQDKSGKTPADLAADAGHEDIAEVLQKLN
Turning to B6, in test [1], the “FAP activity (%)” value was determined as 112%. In addition, the EC50 was determined as 5.6 nM in test [4] and 0.188 nM in test [3]. In test [2], the dissociation constant (Kd) turned out to be 0.115 nM.

B7: DARPin® protein #19 (designed binder)
chain: MRGSHHHHHHGSYPYDVPDYAGSDLGEKLLVAALYGQDDEVRILLAAGADVNAKDQWGLTPLHKAALQGHLEIVEVLLKAGADVNAKDERGHTPLHWAARFGHLEIVEVLLKAGADVNAQDQKGYTPADLAALWGHEDIAEVLQKLN
Turning to B7, the “FAP activity (%)” value in test [1] worked out at 94%. For the same molecule, the results for the EC50 in test [4] and in test [3] were 4.1 nM and 0.308 nM, respectively. In test [2], the Kd was determined as 0.195 nM.

B8: DARPin® protein #33 (designed binder)
chain: MRGSHHHHHHGSYPYDVPDYAGSDLGKKLLEAARAGQDDEVRELLKAGADVNAKDEWGKTPLHLAAIRGHLEIVEVLLKAGADVNAKDTHGITPLHLAAFVGHLEIVEVLLKAGADVNAKDYLGRTPLHIAAAKGHLEIVEVLLKAGADVNAQDKSGKTPADLAADAGHEDIVEVLQKLN
Turning to B8, the “FAP activity (%)” value in test [1] stood at 102%. The half-maximal effective concentration (EC50) in test [4] came out at 7.9 nM; in test [3], 0.205 nM. Further, in test [2], the Kd stood at 0.241 nM.
